As a reminder, the Ki is a dissociation constant, usually derived from enzyme kinetics or from competition with a known ligand. Low readings indicate a stronger hold on the target, high ones a looser hold on the target. One may read the Kd as a measure of binding affinity in units of concentration. A high value points to lower affinity.

The target in experiment [1] is T1, rat GALR2 (rat).
T1 chain: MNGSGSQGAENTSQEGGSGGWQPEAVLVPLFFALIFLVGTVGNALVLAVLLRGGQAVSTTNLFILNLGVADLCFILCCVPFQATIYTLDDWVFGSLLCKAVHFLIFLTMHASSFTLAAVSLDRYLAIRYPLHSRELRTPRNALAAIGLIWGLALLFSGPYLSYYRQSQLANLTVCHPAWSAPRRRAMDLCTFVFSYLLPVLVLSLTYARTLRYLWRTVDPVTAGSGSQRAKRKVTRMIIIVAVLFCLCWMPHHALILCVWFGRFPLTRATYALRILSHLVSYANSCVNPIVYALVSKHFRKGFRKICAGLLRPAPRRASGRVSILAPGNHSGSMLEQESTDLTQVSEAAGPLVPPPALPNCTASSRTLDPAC
In words: competition. The note with it: modification not given.

For experiment [2], the target named is T1, rat GALR2 (rat). Nature of the experiment: radioligand. The note with it: modification not given.

Bounds are passed on as bounds.

GWTLASAGYLLGPHAI [[Ala5]galanin(1-16), P07480] had a Ki in experiment [1] above 620 nM. In turn, DNHRSFHDKYGLA [porcine galanin 17-29, P07480] yielded a Ki in experiment [1] above 1000 nM. In experiment [1], GATLNSAGYLLGPHAI [porcine Ala2-galanin 1-16, P07480] displayed a Ki above 1000 nM. Molecule GWTLNSAGYLLGPHAIDNHRSFHDKYGLA [[D-Trp2]porcine galanin(1-29), P07480] gave an inhibition constant (Ki) in experiment [1] of 6.46 nM.

GFTLNSAGYLLGPHAIDNHRSFHDKYGLA [[Phe2]porcine galanin(1-29), P07480] displayed a Ki in experiment [1] above 1000 nM. GWTLNSAGY [porcine galanin 1-9, P07480] displayed a Ki in experiment [1] above 1000 nM.

With GWTLNSAGYLLGPHAIDNHRSFHDKYGLA [[125I]porcine galanin, P07480], the Kd in experiment [2] came to 0.2 nM. As for GWTLNSAGYLLGPHAIDNHRSFHDKYGLA [porcine galanin(1-29), P07480], the Ki in experiment [1] was 0.447 nM. In experiment [1], GFTLNSAGYLLGPHAI [Phe2-galanin 1-16, P07480] returned a Ki above 1000 nM. Consider GWTLNSAGALLGPHAI [[Ala9]galanin(1-16), P07480], for which the Ki in experiment [1] is above 1000 nM.

Source of the values: patent US7060449.
